Columns and labels:
Assay in all cases: cell_activity
[1] = test system: TaGliadin_T03.1 TALE nuclease pair; conditions: wheat protoplasts; also 0.00 for all treatments in TABLE 7
[2] = test system: TaGliadin_T01.1 TALE nuclease pair; conditions: wheat protoplasts, nuclease only; 0.325% in TABLE 6; 2.40 with TREX, 1.29 with 5-azacytidine, 0.90 with trichostatin A
[3] = test system: TaGliadin_T02.1 TALE nuclease pair; conditions: wheat protoplasts; TABLE 7: 0.00 nuclease only, 2.43 with TREX, 5.33 with 5-azacytidine, 0.00 with trichostatin A

Sequence: TCAGCAACAGCCACAAGAGCAAGTTCCATTGGTGCAACAACAACAATTTCCA (double strand) [TaGliadin_T03.1 target]
- activity (% mutation frequency) [1]: 0

Sequence: TTAGAGTTCCAGTGCCACAATTGCAGCCACAAAATCCATCTCAGCAACA (double strand) [TaGliadin_T01.1 target]
- activity (% mutation frequency) [2]: 1.57

Sequence: TCTCATCCTTGCCCTCCTTGCTATCGTGGCGACCACCGCCACAACTGCA (double strand) [TaGliadin_T02.1 target]
- activity (% mutation frequency) [3]: 0.746

Reference: patent US20200002709
